In paper PMC10334784 (Proceedings of the National Academy of Sciences of the …, 2023):

B1: IL27 (complex)
chain 1: FPRPPGRPQLSLQELRREFTVSLHLARKLLSEVRGQAHRFAESHLPGVNLYLLPLGEQLPDVSLTFQAWRRLSDPERLCFISTTLQPFHALLGGLGTQGRWTNMERMQLWAMRLDLRDLQRHLRFQVLAAGFNLPEEEEEEEEEEEEERKGLLPGALGSALQGPAQVSWPQLLSTYRLLHSLELVLSRAVRELLLLSKAGHSVWPLGFPTLSPQP
chain 2: RKGPPAALTLPRVQCRASRYPIAVDCSWTLPPAPNSTSPVSFIATYRLGMAARGHSWPCLQQTPTSTSCTITDVQLFSMAPYVLNVTAVHPWGSSSSFVPFITEHIIKPDPPEGVRLSPLAERQLQVQWEPPGSWPFPEIFSLKYWIRYKRQGAARFHRVGPIEATSFILRAVRPRARYYVQVAAQDLTDYGELSDWSLPATATMSLGK
B2: CCL5 (ligand)
chain: SPYSSDTTPCCFAYIARPLPRAHIKEYFYTSGKCSNPAVVFVTRKNRQVCANPEKKWVREYINSLEMS
B3: CXCL9 (ligand)
chain: TPVVRKGRCSCISTNQGTIHLQSLKDLKQFAPSPSCEKIEIIATLKNGVQTCLNPDSADVKELIKKWEKQVSQKKKQKNGKKHQKKKVLKVRKSQRSRQKKTT
B4: CCL28 (ligand)
chain: SEAILPIASSCCTEVSHHISRRLLERVNMCRIQRADGDCDLAAVILHVKRRRICVSPHNHTVKQWMKVQAAKKNGKGNVCHRKKHHGKRNSNRAHQGKHETYGHKTPY
B5: CXCL11 (ligand)
chain: FPMFKRGRCLCIGPGVKAVKVADIEKASIMYPSNNCDKIEVIITLKENKGQRCLNPKSKQARLIIKKVERKNF
B6: CXCL14 (ligand)
chain: SKCKCSRKGPKIRYSDVKKLEMKPKYPHCEEKMVIITTKSVSRYRGQEHCLHPKLQSTKRFIKWYNAWNEKRRVYEE
B7: CCL13 (ligand)
chain: not shown
B8: CXCL13 (ligand)
chain: VLEVYYTSLRCRCVQESSVFIPRRFIDRIQILPRGNGCPRKEIIVWKKNKSIVCVDPQAEWIQRMMEVLRKRSSSTLPVPVFKRKIP
B9: CCL26 (ligand)
chain: TRGSDISKTCCFQYSHKPLPWTWVRSYEFTSNSCSQRAVIFTTKRGKKVCTHPRKKWVQKYISLLKTPKQL
B10: CCL11 (ligand)
chain: not shown
B11: CCL25 (ligand)
chain: QGVFEDCCLAYHYPIGWAVLRRAWTYRIQEVSGSCNLPAAIFYLPKRHRKVCGNPKSREVQRAMKLLDARNKVFAKLHHNTQTFQAGPHAVKKLSSGNSKLSSSKFSNPISSSKRNVSLLISANSGL
B12: CCL21 (ligand)
chain: SDGGAQDCCLKYSQRKIPAKVVRSYRKQEPSLGCSIPAILFLPRKRSQAELCADPKELWVQQLMQHLDKTPSPQKPAQGCRKDRGASKTGKKGKGSKGCKRTERSQTPKGP
B13: HCoV-OC43 nucleocapsid (N) protein, 2X-StrepTag tagged (natural protein)
chain: MSFTPGKQSSSRASSGNRSGNGILKWADQSDQVRNVQTRGRRAQPKQTATSQQPSGGNVVPYYSWFSGITQFQKGKEFEFVEGQGPPIAPGVPATEAKGYWYRHNRGSFKTADGNQRQLLPRWYFYYLGTGPHAKDQYGTDIDGVYWVASNQADVNTPADIVDRDPSSDEAIPTRFPPGTVLPQGYYIEGSGRSAPNSRSTSRTSSRASSAGSRSRANSGNRTPTSGVTPDMADQIASLVLAKLGKDATKPQQVTKHTAKEVRQKILNKPRQKRSPNKQCTVQQCFGKRGPNQNFGGGEMLKLGTSDPQFPILAELAPTAGAFFFGSRLELAKVQNLSGNPDEPQKDVYELRYNGAIRFDSTLSGFETIMKVLNENLNAYQQQDGMMNMSPKPQRQRGHKNGQGENDNISVAVPKSRVQQNKSRELTAEDISLLKKMDEPYTEDTSEI

The binders below were run against B13 (assay: BLI).

Binder	Kd	koff	kon
B1	55 nM	0.0024 s⁻¹	51000 M⁻¹ s⁻¹
B2	56000 nM	0.015 s⁻¹	2100 M⁻¹ s⁻¹
B3	29 nM	0.0022 s⁻¹	82000 M⁻¹ s⁻¹
B4	27 nM	0.0015 s⁻¹	60000 M⁻¹ s⁻¹
B5	730 nM	0.012 s⁻¹	18000 M⁻¹ s⁻¹
B6	580 nM	0.0063 s⁻¹	12000 M⁻¹ s⁻¹
B7	1600 nM	0.025 s⁻¹	19000 M⁻¹ s⁻¹
B8	140 nM	0.0046 s⁻¹	44000 M⁻¹ s⁻¹
B9	620 nM	0.014 s⁻¹	20000 M⁻¹ s⁻¹
B10	1400 nM	0.021 s⁻¹	17000 M⁻¹ s⁻¹
B11	610 nM	0.0048 s⁻¹	8300 M⁻¹ s⁻¹
B12	290 nM	0.012 s⁻¹	67000 M⁻¹ s⁻¹

Each binder was assayed against CXCL12α (human, UniProt P48061-2 22-89) (assay: BLI).
Sequence of CXCL12α (P48061 22-89): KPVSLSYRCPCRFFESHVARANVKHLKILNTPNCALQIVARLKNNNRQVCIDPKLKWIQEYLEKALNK

Binder	Kd	koff	kon
B13	0.46 nM	3.7e-05 s⁻¹	62000 M⁻¹ s⁻¹
